In patent publication EP3088890B1 (Chugai Seiyaku Kabushiki Kaisha, dated 2020):

Columns and labels:
[1] = molecular target: T1, AW5, C-terminally His-tagged recombinant product of positions 1 to 357 of GPC3 (human, UniProt P51654 25-357); assay: Western blot analysis, CHO cell pellets
T1 construct: Expressed in CHO cells, cell pellets used in Western blot; The range is as printed and starts at position 1; also called AW5 (1-357); not shown: C-terminal His tag

[2] = molecular target: GPC3 core (sGPC3-His) protein (human) (UniProt P51654); assay: ELISA on plate-bound sGPC3; biotin-labeled GT114, no unlabeled antibody
GPC3 core (sGPC3-His) protein (human), sequence (P51654 25-563 S495A/S509A): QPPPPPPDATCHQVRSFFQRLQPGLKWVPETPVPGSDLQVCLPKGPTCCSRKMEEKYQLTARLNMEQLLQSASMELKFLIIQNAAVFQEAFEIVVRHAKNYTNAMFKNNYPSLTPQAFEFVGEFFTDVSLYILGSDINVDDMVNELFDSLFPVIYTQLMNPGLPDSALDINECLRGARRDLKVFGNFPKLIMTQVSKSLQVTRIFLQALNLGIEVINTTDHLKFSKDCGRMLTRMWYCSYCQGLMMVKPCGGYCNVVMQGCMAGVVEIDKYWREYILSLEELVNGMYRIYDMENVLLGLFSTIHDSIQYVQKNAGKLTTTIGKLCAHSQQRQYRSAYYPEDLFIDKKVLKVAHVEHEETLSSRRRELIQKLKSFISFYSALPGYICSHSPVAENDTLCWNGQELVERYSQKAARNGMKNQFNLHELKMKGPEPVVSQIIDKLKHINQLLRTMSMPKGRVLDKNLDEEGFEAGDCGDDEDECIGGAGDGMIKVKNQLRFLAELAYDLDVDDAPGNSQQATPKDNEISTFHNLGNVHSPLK

[3] = molecular target: GPC3 core (sGPC3-His) protein (human) (UniProt P51654); assay: competition ELISA on plate-bound sGPC3; unlabeled GT114 (100-fold) against competitor biotin-labeled GT607
[4] = molecular target: GPC3 core (sGPC3-His) protein (human) (UniProt P51654); assay: competition ELISA on plate-bound sGPC3; unlabeled GT114 (100-fold) against competitor biotin-labeled GT114; signal of the labeled antibody
[5] = molecular target: T2, GPC3 peptide 141-170 (SEQ ID NO: 8) (human); assay: peptide ELISA, peptide on plate
T2 construct: Synthetic 30-residue peptide of GPC3
T2 peptide: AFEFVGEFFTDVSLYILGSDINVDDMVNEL

[6] = molecular target: T3, GPC3 peptide 341-370 (SEQ ID NO: 18) (human); assay: peptide ELISA, peptide on plate
T3 construct: Synthetic 30-residue peptide of GPC3
T3 peptide: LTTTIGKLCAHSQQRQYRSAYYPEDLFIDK

[7] = molecular target: GPC3 core (sGPC3-His) protein (human) (UniProt P51654); assay: competition ELISA on plate-bound sGPC3; unlabeled GT114 (100-fold) against competitor biotin-labeled GT165; signal of the labeled antibody
[8] = molecular target: GPC3 core (sGPC3-His) protein (human) (UniProt P51654); assay: competition ELISA on plate-bound sGPC3; unlabeled GT114 (100-fold) against competitor biotin-labeled GT165
[9] = molecular target: GPC3 core (sGPC3-His) protein (human) (UniProt P51654); assay: competition ELISA on plate-bound sGPC3; unlabeled GT114 (100-fold) against competitor biotin-labeled GT30; signal of the labeled antibody
[10] = molecular target: GPC3 core (sGPC3-His) protein (human) (UniProt P51654); assay: competition ELISA on plate-bound sGPC3; unlabeled GT114 (100-fold) against competitor biotin-labeled GT114
[11] = molecular target: GPC3 core (sGPC3-His) protein (human) (UniProt P51654); assay: competition ELISA on plate-bound sGPC3; unlabeled GT114 (100-fold) against competitor biotin-labeled GT30
[12] = molecular target: GPC3 core (sGPC3-His) protein (human) (UniProt P51654); assay: competition ELISA on plate-bound sGPC3; unlabeled GT607 (100-fold) against competitor biotin-labeled GT607
[13] = molecular target: GPC3 core (sGPC3-His) protein (human) (UniProt P51654); assay: competition ELISA on plate-bound sGPC3; unlabeled GT607 (100-fold) against competitor biotin-labeled GT165
[14] = molecular target: GPC3 core (sGPC3-His) protein (human) (UniProt P51654); assay: competition ELISA on plate-bound sGPC3; unlabeled GT607 (100-fold) against competitor biotin-labeled GT114; signal of the labeled antibody
[15] = molecular target: GPC3 core (sGPC3-His) protein (human) (UniProt P51654); assay: competition ELISA on plate-bound sGPC3; unlabeled GT607 (100-fold) against competitor biotin-labeled GT30; signal of the labeled antibody
[16] = molecular target: GPC3 core (sGPC3-His) protein (human) (UniProt P51654); assay: competition ELISA on plate-bound sGPC3; unlabeled GT607 (100-fold) against competitor biotin-labeled GT114
[17] = molecular target: GPC3 core (sGPC3-His) protein (human) (UniProt P51654); assay: competition ELISA on plate-bound sGPC3; unlabeled GT607 (100-fold) against competitor biotin-labeled GT165; signal of the labeled antibody
[18] = molecular target: T1, AW5, C-terminally His-tagged …; assay: Western blot, pellets of CHO cells expressing the product
[19] = molecular target: GPC3 core (sGPC3-His) protein (human) (UniProt P51654); assay: competition ELISA on plate-bound sGPC3; unlabeled GT165 (100-fold) against competitor biotin-labeled GT165
[20] = molecular target: GPC3 core (sGPC3-His) protein (human) (UniProt P51654); assay: competition ELISA on plate-bound sGPC3; unlabeled GT165 (100-fold) against competitor biotin-labeled GT165; signal of the labeled antibody
[21] = molecular target: GPC3 core (sGPC3-His) protein (human) (UniProt P51654); assay: competition ELISA on plate-bound sGPC3; unlabeled GT165 (100-fold) against competitor biotin-labeled GT30; signal of the labeled antibody
[22] = molecular target: GPC3 core (sGPC3-His) protein (human) (UniProt P51654); assay: competition ELISA on plate-bound sGPC3; unlabeled GT165 (100-fold) against competitor biotin-labeled GT114
[23] = molecular target: GPC3 core (sGPC3-His) protein (human) (UniProt P51654); assay: competition ELISA on plate-bound sGPC3; unlabeled GT165 (100-fold) against competitor biotin-labeled GT607; signal of the labeled antibody
[24] = molecular target: GPC3 core (sGPC3-His) protein (human) (UniProt P51654); assay: competition ELISA on plate-bound sGPC3; unlabeled GT165 (100-fold) against competitor biotin-labeled GT114; signal of the labeled antibody
[25] = molecular target: GPC3 core (sGPC3-His) protein (human) (UniProt P51654); assay: competition ELISA on plate-bound sGPC3; unlabeled GT165 (100-fold) against competitor biotin-labeled GT30
[26] = molecular target: GPC3 core (sGPC3-His) protein (human) (UniProt P51654); assay: competition ELISA on plate-bound sGPC3; unlabeled GT165 (100-fold) against competitor biotin-labeled GT607

T1 sequence (P51654 25-357): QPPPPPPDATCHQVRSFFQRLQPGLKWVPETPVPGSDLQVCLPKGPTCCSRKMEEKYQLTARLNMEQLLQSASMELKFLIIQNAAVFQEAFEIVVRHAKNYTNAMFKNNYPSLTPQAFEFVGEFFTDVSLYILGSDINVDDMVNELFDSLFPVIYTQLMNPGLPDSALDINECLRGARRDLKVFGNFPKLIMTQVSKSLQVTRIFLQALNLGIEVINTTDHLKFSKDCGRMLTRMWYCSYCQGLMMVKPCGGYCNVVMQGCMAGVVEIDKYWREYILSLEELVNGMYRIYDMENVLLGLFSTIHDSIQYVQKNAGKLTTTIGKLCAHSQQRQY

B1: GT114 antibody (antibody, IgG1, V domains shown)
VH: DVQLQESGPGLVKPSQSLSLTCTVTGYSITSDSAWNWIRQFPGNKLEWMAYIMYSGITSYNPSLKSRISITRDTAKNQFFLQLNSVTTEDSATYYCSRGYWYFDVWGAGTTVTVSS
VL: QIVLTQSPAIMSASLGEEITLTCSASSSVSYMHWYQQKSGTSPKLLIYSTSILASGVPSRFSGSGSGTFYSLTISSVEAEDAADYYCLQWITYRTFGGGTKLEIKR
In the case of B1, the binding result [1] is reported as “binds”, the O.D. 450 [2] is reported as 2.3 O.D. 450 and the Inhibitory effect (%) [3] is reported as 86%. For the same binder, the O.D. 450 [4] was 0.251 O.D. 450, the binding result [5] was “no binding (tested: 2 µg/mL)” and the binding result [6] was “no binding (tested: 2 µg/mL)”. For the same binder, the O.D. 450 [7] was 1.82 O.D. 450, the Inhibitory effect (%) [8] was under 0% and the O.D. 450 [9] was 2.14 O.D. 450. For the same binder, the Inhibitory effect (%) [10] was 89% and the Inhibitory effect (%) [11] was under 0%.

B2: GT607 antibody (antibody, IgG1, V domains shown)
VH: EVQLVESGGDVVRPGGSLKLSCAASGFTFSSYGMSWVRQLPDKRLEWVASVGNGGSYRYYPENLKGRFTISRDNTKNTLYLQISGLKSEDTAIYYCARRGAFPYFDVWGAGTTVTVSS
VL: QIVLTQSPAIMSASPGEKVTLACSASSSVTYMHWYQQKSGTSPKRWIYETSKLASGVPPRFSGSGSGTSYSLTISTMEAEDAATYYCQQWSSNPLTFGAGTKLELKR
In the case of B2, the binding result [1] is reported as “binds”, the Inhibitory effect (%) [12] is reported as 94% and the binding result [5] is reported as “no binding (tested: 2 µg/mL)”. The binding result [6] was “no binding (tested: 2 µg/mL)”, the Inhibitory effect (%) [13] was 92% and the O.D. 450 [14] was 1.13 O.D. 450. It also gave an O.D. 450 [15] of 2.06 O.D. 450, an Inhibitory effect (%) [16] of 51% and an O.D. 450 [17] of 0.129 O.D. 450.

B3: GT165 antibody (antibody, IgG1, V domains shown)
VH: QVQLQQSGAELVGPGASVKISCKAFGYTFTNHHINWVKQRPGQGLDWIGYINPYNDYTNYNQKFKGKATLTVDKSSSTAYMELSSLTSEDSAVYYCARSDPAWFAYWGQGTLVTVSA
VL: DIQMTQSPSSLSASLGGKVTITCKASQDINKNIAWYQHKPGKGPRLLIWYTYTLQPGIPSRFSGSGSGRDYSFSISNLEPEDIATYYCLQYDNLPFTFGTGTKLEIKR
With B3 the binding result [18] was “no binding”, the Inhibitory effect (%) [19] was 93% and the binding result [5] was “no binding (tested: 2 µg/mL)”. The binding result [6] was “no binding (tested: 2 µg/mL)”, the O.D. 450 [20] was 0.111 O.D. 450 and the O.D. 450 [21] was 0.846 O.D. 450. It also gave an Inhibitory effect (%) [22] of 1%, an O.D. 450 [23] of 1.25 O.D. 450 and an O.D. 450 [24] of 2.28 O.D. 450. The Inhibitory effect (%) [25] was 54% and the Inhibitory effect (%) [26] was 43%.
